# Assay results published in US20210206841A1 (RESEARCH INSTITUTE AT NATIONWIDE CHILDREN S HOSPITAL, published 2021).
# Substitutions are numbered along the chain they refer to.
# T1: tip-chimeric peptide IhfA5-mIhfB4NTHI (nontypeable Haemophilus influenzae …)
# T1 construct: also called IHF(NTHI) tip chimeric peptide; IHFNTHI tip chimeric peptide
# T1 peptide: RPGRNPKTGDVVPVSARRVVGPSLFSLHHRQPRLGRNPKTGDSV
# T2: tail-chimeric peptide IhfA3-IhfB2NTHI (nontypeable Haemophilus influenzae …)
# T2 construct: also called IHF(NTHI) tail chimeric peptide; IHFNTHI tail chimeric peptide
# T2 peptide: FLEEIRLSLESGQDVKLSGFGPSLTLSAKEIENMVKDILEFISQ
# T3: native IHFNTHI (integration host factor of nontypeable Haemophilus influenzae) (nontypeable Haemophilus influenzae …, UniProt P43723 1-96; P43724 1-94)
# T3 construct: also called NTHI IHF
# T3 sequence 1: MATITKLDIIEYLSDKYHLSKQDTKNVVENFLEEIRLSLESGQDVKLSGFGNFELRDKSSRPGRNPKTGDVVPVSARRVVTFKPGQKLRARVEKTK
# T3 sequence 2: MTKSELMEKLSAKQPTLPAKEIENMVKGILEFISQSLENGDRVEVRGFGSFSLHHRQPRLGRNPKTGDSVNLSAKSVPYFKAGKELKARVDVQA
# B1: humanized anti-tip monoclonal antibody, heavy chain SEQ ID NO: 3 and light chain SEQ ID NO: 7 (antibody, V domains shown)
# VH: EVKLVQSGAEVKKPGASVKVSCKASGFTFRTYAMSWVRQAPGQRLEWVATIGSDRRHTYYPDKFQGRVTITRDNAKNTLYMELSSLRSEDTAVYYCVGPYDGYYGEFDYWGQGTLVTVSS
# VL: DVVMTQSPLSLPVTLGQPASISCRSSQSLLDSDGKTFLNWLQQRPGQSPRRLIYLVSKLDSGVPDRFSGSGSGTDFTLKISRVEAEDVGVYYCWQGTHFPYTFGQGTKLEIKR
# notes: also called H10212 (1F8.F1 Humanized HC3) + L10210 (1F8.F1 Humanized LC1)
# B2: humanized anti-tip monoclonal antibody, heavy chain SEQ ID NO: 1 and light chain SEQ ID NO: 7 (antibody, V domains shown)
# VH: EVKLVESGGGLVQPGGSLRLSCAASGFTFRTYAMSWVRQAPGKGLEWVATIGSDRRHTYYPDSVKGRFTISRDNAKNTLYLQMNSLRAEDTAVYYCVGPYDGYYGEFDYWGQGTLVTVSS
# VL: B1 VL
# notes: also called HuTipMab; TP-21949
# B3: humanized anti-tip monoclonal antibody, heavy chain SEQ ID NO: 1 and light chain SEQ ID NO: 8 (antibody, V domains shown)
# VH: B2 VH
# VL: B1 VL with L59R
# notes: also called H10210 (1F8.F1 Humanized HC1) + L10211 (1F8.F1 Humanized LC2)
# B4: humanized anti-tip monoclonal antibody, heavy chain SEQ ID NO: 2 and light chain SEQ ID NO: 7 (antibody, V domains shown)
# VH: B2 VH with K3Q, A75S
# VL: B1 VL
# notes: also called H10211 (1F8.F1 Humanized HC2) + L10210 (1F8.F1 Humanized LC1)
# B5: humanized anti-tip monoclonal antibody, heavy chain SEQ ID NO: 2 and light chain SEQ ID NO: 8 (antibody, V domains shown)
# VH: B2 VH with K3Q, A75S
# VL: B1 VL with L59R
# notes: also called H10211 (1F8.F1 Humanized HC2) + L10211 (1F8.F1 Humanized LC2)
# B6: humanized anti-tip monoclonal antibody, heavy chain SEQ ID NO: 1 and light chain SEQ ID NO: 9 (antibody, V domains shown)
# VH: B2 VH
# VL: DVVMTQSPDSLAVSLGERATINCKSSQSLLDSDGKTFLNWLQQKPGQPPKRLIYLVSKLDSGVPDRFSGSGSGTDFTLTISSLQAEDVAVYYCWQGTHFPYTFGQGTKLEIKR
# notes: also called H10210 (1F8.F1 Humanized HC1) + L10212 (1F8.F1 Humanized LC3)
# B7: humanized anti-tip monoclonal antibody, heavy chain SEQ ID NO: 2 and light chain SEQ ID NO: 9 (antibody, V domains shown)
# VH: B2 VH with K3Q, A75S
# VL: B6 VL
# notes: also called H10211 (1F8.F1 Humanized HC2) + L10212 (1F8.F1 Humanized LC3)
# B8: humanized anti-tip monoclonal antibody, heavy chain SEQ ID NO: 3 and light chain SEQ ID NO: 9 (antibody, V domains shown)
# VH: B1 VH
# VL: B6 VL
# notes: also called H10212 (1F8.F1 Humanized HC3) + L10212 (1F8.F1 Humanized LC3)
# B9: humanized anti-tail monoclonal antibody, heavy chain SEQ ID NO: 4 and light chain SEQ ID NO: 10 (antibody, V domains shown)
# VH: EVQLVESGGGLVKPGGSLRLSCAASGFTFSRYGMSWVRQAPGKGLEWVATISSGGSYTYYTDSVKGRFTISRDNAKNSLYLQMNSLRAEDTAVYYCERHGGDGYWYFDVWGQGTMVTVSS
# VL: DIQMTQSPSSLSASVGDRVTITCRASQDISNYLNWYQQKPGKAVKLLIYYTSRLHSGVPSRFSGSGSGTDYTLTISSLQPEDFATYFCQQGNPLRTFGGGTKVEIKR
# notes: also called HuTailMab; TP-21958
# B10: humanized anti-tail monoclonal antibody, heavy chain SEQ ID NO: 4 and light chain SEQ ID NO: 11 (antibody, V domains shown)
# VH: B9 VH
# VL: B9 VL with F87Y
# notes: also called H10213 (11E7.C7 Humanized HC1) + L10214 (11E7.C7 Humanized LC2)
# B11: humanized anti-tail monoclonal antibody, heavy chain SEQ ID NO: 5 and light chain SEQ ID NO: 10 (antibody, V domains shown)
# VH: B9 VH with A49S
# VL: B9 VL
# notes: also called H10214 (11E7.C7 Humanized HC2) + L10213 (11E7.C7 Humanized LC1)
# B12: humanized anti-tail monoclonal antibody, heavy chain SEQ ID NO: 5 and light chain SEQ ID NO: 11 (antibody, V domains shown)
# VH: B9 VH with A49S
# VL: B9 VL with F87Y
# notes: also called H10214 (11E7.C7 Humanized HC2) + L10214 (11E7.C7 Humanized LC2)
# B13: humanized anti-tail monoclonal antibody, heavy chain SEQ ID NO: 6 and light chain SEQ ID NO: 10 (antibody, V domains shown)
# VH: B9 VH with K13Q, G16R, A23T, S78I, R87K, A88T
# VL: B9 VL
# notes: also called H10215 (11E7.C7 Humanized HC3) + L10213 (11E7.C7 Humanized LC1)
# B14: humanized anti-tail monoclonal antibody, heavy chain SEQ ID NO: 6 and light chain SEQ ID NO: 11 (antibody, V domains shown)
# VH: B9 VH with K13Q, G16R, A23T, S78I, R87K, A88T
# VL: B9 VL with F87Y
# notes: also called H10215 (11E7.C7 Humanized HC3) + L10214 (11E7.C7 Humanized LC2)
# B15: humanized anti-tail monoclonal antibody, heavy chain SEQ ID NO: 4 and light chain SEQ ID NO: 12 (antibody, V domains shown)
# VH: B9 VH
# VL: DIVMTQSPATLSLSPGERATLSCRASQDISNYLNWYQQKPGQAVRLLIYYTSRLHSGIPARFSGSGSGTDYTLTISSLEPEDFAVYFCQQGNPLRTFGGGTKVEIKR
# notes: also called H10213 (11E7.C7 Humanized HC1) + L10215 (11E7.C7 Humanized LC3)
# Molecular target: T1, tip-chimeric peptide IhfA5-mIhfB4NTHI
# Experiment: SPR Biacore 3000, HuMab immobilized, peptide as analyte
Binder,Kd [nM],koff [s⁻¹],kon [M⁻¹ s⁻¹]
B1,29,0.0016,54000
B2,76,0.00034,4500
B3,21,0.00037,17000
B4,527,0.00015,280
B5,257,7.7e-05,300
B6,152,0.00038,2500
B7,23,7.4e-05,3500
B8,200,0.0019,9500

# Molecular target: T2, tail-chimeric peptide IhfA3-IhfB2NTHI
# Experiment: as above
Binder,Kd [nM],koff [s⁻¹],kon [M⁻¹ s⁻¹]
B9,29.6,0.00033,11000
B10,62.2,0.00027,~4300
B11,60,0.00029,4800
B12,47,0.00027,5700
B13,72,0.0013,18000
B14,67,0.0013,33000

# Molecular target: T1, tip-chimeric peptide IhfA5-mIhfB4NTHI
# Experiment: SPR Biacore 3000, peptide immobilized, HuMab as analyte
Binder,Kd [nM],koff [s⁻¹],kon [M⁻¹ s⁻¹]
B1,8,0.0004,48000
B2,7,0.00022,31000
B3,0.3,1.1e-05,42000
B4,144,0.0026,18000
B5,13,0.00028,22000
B6,0.3,1.3e-05,40000
B7,4,1.2e-05,3700
B8,3,0.00021,79000

# Molecular target: T1, tip-chimeric peptide IhfA5-mIhfB4NTHI
# Experiment: direct ELISA #2, peptide coated (curves reaching equilibrium)
row,Binder,EC50 [µg/mL]
1,B1,0.0858
2,B2,0.0704
3,B3,0.0644
4,B4,0.062
5,B5,0.0402
6,B6,0.055
7,B7,0.0453
8,B8,0.111

# Molecular target: T2, tail-chimeric peptide IhfA3-IhfB2NTHI
# Experiment: as above
row,Binder,EC50 [µg/mL]
1,B9,0.0427
2,B10,0.0408
3,B11,0.0367
4,B12,0.0339
5,B13,0.0274
6,B14,0.028
7,B15,0.0404

# Molecular target: T3, native IHFNTHI (integration host factor …)
# Experiment: SPR Biacore 3000, HuMab immobilized, IHFNTHI as analyte
Binder,Kd [nM],koff [s⁻¹],kon [M⁻¹ s⁻¹]
B9,~5.6,0.00043,77000
B10,~5.3,0.00053,100000
B11,~3.6,0.00057,160000
B12,~4.4,0.00061,140000
B13,18,0.00073,25000
B14,~14.8,0.00068,46000

# Molecular target: T2, tail-chimeric peptide IhfA3-IhfB2NTHI
# Experiment: direct ELISA #1, peptide coated (curves not reaching equilibrium)
row,Binder,EC50 [µg/mL]
1,B9,0.01
2,B10,0.011
3,B11,0.007
4,B12,0.014
5,B13,0.013
6,B14,0.011
7,B15,0.012

# Molecular target: T3, native IHFNTHI (integration host factor …)
# Experiment: SPR Biacore 3000, IHFNTHI immobilized, HuMab as analyte
Binder,Kd [nM],koff [s⁻¹],kon [M⁻¹ s⁻¹]
B1,825,0.00011,140
B2,17,9e-05,5400
B3,40,0.006,150000
B4,4400,0.0014,–
B5,354,0.00015,420
B6,24,0.16,6.5e+06
B7,125,0.0017,–
B8,3400,0.016,4600

# Molecular target: T3, native IHFNTHI (integration host factor …)
# Experiment: SPR Biacore 3000, HuMab immobilized, IHFNTHI as analyte
# Remark: another data set of the same source
Binder,Kd [nM],koff [s⁻¹],kon [M⁻¹ s⁻¹]
B1,6,0.0004,66000
B2,10,1.4e-05,1400
B3,0.2,0.00032,1.4e+06
B4,0.6,0.0004,640000
B5,9,0.00059,70000
B6,0.6,0.00037,630000
B7,62,0.00045,7200
B8,1600,0.0027,1700

# Molecular target: T1, tip-chimeric peptide IhfA5-mIhfB4NTHI
# Experiment: direct ELISA #1, peptide coated (curves not reaching equilibrium)
row,Binder,EC50 [µg/mL]
1,B1,0.075
2,B2,0.06
3,B3,0.066
4,B4,0.049
5,B5,0.055
6,B6,0.032
7,B7,0.027
8,B8,0.035

# Molecular target: T2, tail-chimeric peptide IhfA3-IhfB2NTHI
# Experiment: SPR Biacore 3000, peptide immobilized, HuMab as analyte
Binder,Kd [nM],koff [s⁻¹],kon [M⁻¹ s⁻¹]
B9,4.3,0.00064,150000
B10,4.9,0.00068,140000
B11,6.1,0.00082,130000
B12,6.2,0.00076,120000
B13,2.5,0.00046,180000
B14,1,0.00016,160000
B15,5.1,0.00056,110000
